The results in this text go back to article PMC3097204.

Assay [1] deals with mature SsTroA domain (residues 36–317) (Streptococcus suis serotype 2 (strain 05ZYH33)). The experiment in a line: SEC; analytical FPLC Superdex 200 profile of purified SsTroA. (In gel filtration, larger molecules generally elute earlier.)
Assay [2] has the same target. The experiment in a line: AUC; sedimentation velocity profiles analysed with SEDFIT; 1 mg/ml protein in 20 mM Tris-HCl (pH 8.0), 50 mM NaCl; 50,000 rpm, 20°C; monomer and dimer.

Usually stoichiometry N stands for the number of molecules, sites or subunits per partner or assembly. Take “mature SsTroA domain (residues 36–317) (domain or fragment)”: in assay [1], the stoichiometry N came to 2. Further, in assay [2], the percent of the total protein in the dimer peak came to 6.8% and the stoichiometry N worked out at 2.
